Experimental data from paper PMC7319042 (Structure (London, England : 1993), 2018).

What was measured:
[1] = biological target: Rev (Human immunodeficiency virus 1) (UniProt P04325); conditions: cited from earlier work
[2] = biological target: Rev116 (HIV-1, UniProt P04616 1-116); experiment: analytical ultracentrifugation
[3] = biological target: HIV-1 Rev^116 (full-length wild-type Rev) (HIV-1, UniProt P04618); experiment: light scattering at 320 nm of the
[4] = biological target: HIV-1 Rev^93 (C-terminally truncated Rev, amino acids 1-93) (HIV-1, UniProt P04618); experiment: crystal structure
[5] = biological target: T1, HIV-1 Rev^116 (full-length wild-type Rev) (HIV-1), P04618; experiment: AUC; conditions: remark: other sources report otherwise
T1 chain: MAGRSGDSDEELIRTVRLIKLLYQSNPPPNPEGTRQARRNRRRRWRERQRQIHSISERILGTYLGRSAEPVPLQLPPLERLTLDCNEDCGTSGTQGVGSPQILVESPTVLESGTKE

[6] = biological target: T1, HIV-1 Rev^116 (full-length wild-type …); experiment: light scattering at 320 nm of thermally induced assembly; conditions: remark: other sources report otherwise

In the case of Rev (from UniProt P04325), the Kd [1] is listed as 1000 nM.

B1: RBA-14 (structured_RNA)
RNA: GGCUGGACUCGUACUUCGGUACUGGAGAAACAGCC
B1: binds [2].

B2: chimeric rabbit/human scFv SJS-R1 (anti-Rev single-chain variable fragment) (scFv, V domains shown)
VH: QEQLVESGGRLVTPGTALTLTCKVSGFSLSGFWLNWVRQAPGKGLEWVGAIYRGSGSEWYASWAKGRFTISDTSTTVTLKLTSPTTEDTATYFCAADTTDNGYFTIWGPGTLVTVSS
VL: ELVMTQTPSSVSEPVGGTVTIKCQASQSISSWLSWYQQKPGQPPKLLIYDASNLASGVPSRFMGSGSGTEYTLTISGVQREDAATYYCLGGYPAASYRTAFGGGTELEII
B2: binds [3]; binds [4].

B3: HIV-1 Rev^116 (full-length wild-type Rev), P04618 1-116 (natural protein)
chain: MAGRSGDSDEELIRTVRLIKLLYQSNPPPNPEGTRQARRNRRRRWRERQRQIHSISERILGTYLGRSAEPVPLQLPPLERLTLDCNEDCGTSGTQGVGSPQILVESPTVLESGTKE
Molecule B3 has a stoichiometry N [5] of 4 and a critical concentration (Cr) of polymer formation [6] of 11 µM.
